First the molecules themselves.
T1: EsCas13d, nuclease-dead (Eubacterium siraeum, UniProt B0MS50, R295A;H300A;R849A;H854A)
T1 sequence: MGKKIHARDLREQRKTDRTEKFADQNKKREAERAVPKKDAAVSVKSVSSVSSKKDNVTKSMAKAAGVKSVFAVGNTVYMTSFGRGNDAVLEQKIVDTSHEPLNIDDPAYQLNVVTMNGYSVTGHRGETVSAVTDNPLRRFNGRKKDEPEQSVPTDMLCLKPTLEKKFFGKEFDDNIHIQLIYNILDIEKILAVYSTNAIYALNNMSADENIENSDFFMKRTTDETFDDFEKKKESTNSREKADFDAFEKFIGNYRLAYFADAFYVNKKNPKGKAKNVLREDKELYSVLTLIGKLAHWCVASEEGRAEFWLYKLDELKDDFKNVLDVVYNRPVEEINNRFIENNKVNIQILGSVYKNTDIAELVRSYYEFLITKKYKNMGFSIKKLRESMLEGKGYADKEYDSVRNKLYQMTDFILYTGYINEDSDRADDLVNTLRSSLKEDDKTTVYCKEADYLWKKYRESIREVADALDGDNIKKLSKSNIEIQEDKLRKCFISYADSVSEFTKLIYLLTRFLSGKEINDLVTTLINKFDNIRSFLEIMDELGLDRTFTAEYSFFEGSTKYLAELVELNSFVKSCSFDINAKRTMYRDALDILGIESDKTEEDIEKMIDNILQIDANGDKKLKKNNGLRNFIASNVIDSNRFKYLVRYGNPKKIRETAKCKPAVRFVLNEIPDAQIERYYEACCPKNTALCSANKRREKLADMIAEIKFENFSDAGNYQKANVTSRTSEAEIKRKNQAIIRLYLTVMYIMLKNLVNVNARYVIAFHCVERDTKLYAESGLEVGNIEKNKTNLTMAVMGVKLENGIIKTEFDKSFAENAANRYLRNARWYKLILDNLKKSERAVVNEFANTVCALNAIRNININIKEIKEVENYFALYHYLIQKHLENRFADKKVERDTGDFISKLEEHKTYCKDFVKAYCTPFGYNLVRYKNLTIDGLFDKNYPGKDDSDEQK

B1: target 1 G13A,U19C (mixed)
RNA 1: CACCCGUGCAAAAAUGCAGGGGUCUAAAACUGAGCGGAUAACCUCUCUAUGG
RNA 2: GGGAAUGGAUCCACAUCUACGAAUUCGUACCACAGAGAAGUUAUCCGCUCACCGAGAUCGGAAGAGCACACGU
B2: target 1 insU 3' of 2,insU 3' of 1 (mixed)
RNA 1: B1 RNA 1
RNA 2: GGGAAUGGAUCCACAUCUACGAAUUCGUACCAUAGAGAGGUUAUCCGCUCUAUCCGAGAUCGGAAGAGCACACGU
B3: target 1 insU 3' of 20,insC 3' of 9 (mixed)
RNA 1: B1 RNA 1
RNA 2: GGGAAUGGAUCCACAUCUACGAAUUCGUACCAUUAGAGAGGUUACUCCGCUCACCGAGAUCGGAAGAGCACACGU
B4: target 1 C4A,C6A (mixed)
RNA 1: B1 RNA 1
RNA 2: B1 RNA 2 with C33U, A39G, C46A, C48A
B5: target 2 MT 5'PFS GGA 3'PFS UGA (mixed)
RNA 1: CACCCGUGCAAAAUUGCAGGGGUCUAAAACCUUCUCCAAAUUGUUUCAUCCU
RNA 2: GGGAAUGGAUCCACAUCUACGAAUUCGGAAGGAUGAAACAAUUUGGAGAAGUGAAGAUCGGAAGAGCACACGU
B6: target 2 MT 5'PFS UAG 3'PFS CUU (mixed)
RNA 1: B5 RNA 1
RNA 2: B5 RNA 2 with G27U, G28A, A29G, U52C, G53U, A54U
B7: target 2 MT 5'PFS GGA 3'PFS UGU (mixed)
RNA 1: B5 RNA 1
RNA 2: B5 RNA 2 with A54U
B8: target 2 MT 5'PFS UAA 3'PFS UCG (mixed)
RNA 1: B5 RNA 1
RNA 2: B5 RNA 2 with G27U, G28A, G53C, A54G
B9: target 2 MT 5'PFS GGA 3'PFS CGC (mixed)
RNA 1: B5 RNA 1
RNA 2: B5 RNA 2 with U52C, A54C
B10: target 2 MT 5'PFS UGU 3'PFS CGC (mixed)
RNA 1: B5 RNA 1
RNA 2: B5 RNA 2 with G27U, A29U, U52C, A54C
B11: target 2 MT 5'PFS GCU 3'PFS AGC (mixed)
RNA 1: B5 RNA 1
RNA 2: B5 RNA 2 with G28C, A29U, U52A, A54C
B12: target 2 MT 5'PFS GGA 3'PFS CGG (mixed)
RNA 1: B5 RNA 1
RNA 2: B5 RNA 2 with U52C, A54G
B13: target 2 MT 5'PFS AGG 3'PFS UCC (mixed)
RNA 1: B5 RNA 1
RNA 2: B5 RNA 2 with G27A, A29G, G53C, A54C
B14: target 2 MT 5'PFS GGG 3'PFS CCA (mixed)
RNA 1: B5 RNA 1
RNA 2: B5 RNA 2 with A29G, U52C, G53C
B15: target 2 MT 5'PFS CGG 3'PFS CUA (mixed)
RNA 1: B5 RNA 1
RNA 2: B5 RNA 2 with G27C, A29G, U52C, G53U
B16: target 2 MT 5'PFS GUA 3'PFS CCA (mixed)
RNA 1: B5 RNA 1
RNA 2: B5 RNA 2 with G28U, U52C, G53C
B17: target 2 MT 5'PFS UAG 3'PFS CUG (mixed)
RNA 1: B5 RNA 1
RNA 2: B5 RNA 2 with G27U, G28A, A29G, U52C, G53U, A54G
B18: target 2 MT 5'PFS UAG 3'PFS CUA (mixed)
RNA 1: B5 RNA 1
RNA 2: B5 RNA 2 with G27U, G28A, A29G, U52C, G53U
B19: target 2 MT 5'PFS CGG 3'PFS CUC (mixed)
RNA 1: B5 RNA 1
RNA 2: B5 RNA 2 with G27C, A29G, U52C, G53U, A54C
B20: target 2 MT 5'PFS GGA 3'PFS CGA (mixed)
RNA 1: B5 RNA 1
RNA 2: B5 RNA 2 with U52C
B21: target 2 MT 5'PFS UAA 3'PFS UCA (mixed)
RNA 1: B5 RNA 1
RNA 2: B5 RNA 2 with G27U, G28A, G53C
B22: target 2 MT 5'PFS GGG 3'PFS CCG (mixed)
RNA 1: B5 RNA 1
RNA 2: B5 RNA 2 with A29G, U52C, G53C, A54G
B23: target 2 MT 5'PFS UGU 3'PFS CGA (mixed)
RNA 1: B5 RNA 1
RNA 2: B5 RNA 2 with G27U, A29U, U52C
B24: target 2 MT 5'PFS GAA 3'PFS UCA (mixed)
RNA 1: B5 RNA 1
RNA 2: B5 RNA 2 with G28A, G53C
B25: target 2 MT 5'PFS GGA 3'PFS CGU (mixed)
RNA 1: B5 RNA 1
RNA 2: B5 RNA 2 with U52C, A54U
B26: target 2 MT 5'PFS CGG 3'PFS CUU (mixed)
RNA 1: B5 RNA 1
RNA 2: B5 RNA 2 with G27C, A29G, U52C, G53U, A54U
B27: target 2 MT 5'PFS UAG 3'PFS CUC (mixed)
RNA 1: B5 RNA 1
RNA 2: B5 RNA 2 with G27U, G28A, A29G, U52C, G53U, A54C
B28: target 2 MT 5'PFS AAG 3'PFS UAC (mixed)
RNA 1: B5 RNA 1
RNA 2: B5 RNA 2 with G27A, G28A, A29G, G53A, A54C
B29: target 2 MT 5'PFS UAA 3'PFS UCC (mixed)
RNA 1: B5 RNA 1
RNA 2: B5 RNA 2 with G27U, G28A, G53C, A54C
B30: target 2 MT 5'PFS UAG 3'PFS UAU (mixed)
RNA 1: B5 RNA 1
RNA 2: B5 RNA 2 with G27U, G28A, A29G, G53A, A54U

Residue numbers refer to the chain shown, from its start. Names may count otherwise.

This data set deals with T1, EsCas13d, nuclease-dead. Description: crRNA (strand 1, pre-loaded); Mg2+; 40 mM Tris-HCl pH 7.5, 150 mM NaCl, 6 mM MgCl2, 1 mM DTT, 0.1% Tween-20, 0.2 mg/ml BSA; 25 C; 10 min per concentration, then washed. The following applies: tags: His6-TwinStrep-SUMO cleaved; N-terminal SNAP kept (SNAP-Surface 488); label: 3' end held by stalled T7 RNA polymerase.
With B1, the Kd amounted to 30 ± 6 nM.
The value for B2 was 10.7 ± 0.6 nM; that for B3 was 22.6 ± 1.1 nM.
For B4, the affinity, expressed as Kd, was 6.17 ± 0.31 nM.
For B5, binding was put at a Kd of 15.6 ± 3.1 nM.
The figure for B6 is 4.4 ± 0.5 nM; for B7 it is 16.4 ± 1.6 nM; for B8 it is 6.2 ± 1 nM.
For B9, binding was put at a Kd of 10.5 ± 1.2 nM.
Molecule B10 had a Kd of 18.5 ± 2.9 nM.
Molecule B11 returned a dissociation constant Kd of 7.8 ± 1.4 nM.
For B12, the dissociation constant Kd turned out to be 9.8 ± 0.8 nM.
The value for B13 was 26 ± 4 nM; that for B14 was 25 ± 5 nM; that for B15 was 6.1 ± 0.8 nM.
B16 registered an equilibrium dissociation constant (Kd) of 17.3 ± 2.4 nM.
The value for B17 was 3.8 ± 0.5 nM; that for B18 was 3.6 ± 0.5 nM; that for B19 was 7.2 ± 0.9 nM.
The figure for B20 is 9.1 ± 0.9 nM; for B21 it is 6.8 ± 1.7 nM.
In the case of B22, binding was characterised by a dissociation constant (Kd) of 11.6 ± 0.9 nM.
Molecule B23 yielded a Kd of 10.3 ± 1.7 nM.
B24 registered an equilibrium dissociation constant (Kd) of 12.7 ± 3.2 nM.
In turn, B25 came in with an equilibrium dissociation constant (Kd) of 19.9 ± 3.1 nM.
The value for B26 was 6.6 ± 0.9 nM; that for B27 was 4.4 ± 0.4 nM.
The value for B28 was 4.4 ± 0.5 nM; that for B29 was 11.8 ± 1.4 nM.
The value for B30 was 2.94 ± 0.19 nM.

One may read the Kd as the free concentration of one partner at which half of the binding sites on the other are occupied at equilibrium, for simple one-to-one binding.

For the origin of these results see article PMC10786891, “Massively parallel profiling of RNA-targeting CRISPR-Cas13d”.
